Test results from PMC4967814 (2016).

T1: recombinant human IFNα4 (human, UniProt P05014 24-189)
T1 chain: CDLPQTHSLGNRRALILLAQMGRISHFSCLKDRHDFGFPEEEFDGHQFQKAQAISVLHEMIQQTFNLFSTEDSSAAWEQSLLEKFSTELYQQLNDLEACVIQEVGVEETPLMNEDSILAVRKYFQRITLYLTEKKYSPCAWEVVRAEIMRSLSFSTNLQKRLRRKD

T2: recombinant human IFNα14 (human, UniProt P01570 24-189)
T2 chain: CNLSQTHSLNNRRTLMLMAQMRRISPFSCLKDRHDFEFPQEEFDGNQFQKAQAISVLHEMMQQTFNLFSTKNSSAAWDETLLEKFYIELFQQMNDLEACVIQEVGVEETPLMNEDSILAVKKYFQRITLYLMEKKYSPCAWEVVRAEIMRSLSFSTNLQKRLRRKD


Assays:
Assay in all cases: SPR
recombinant human IFNα4 = target: T1, recombinant human IFNα4
recombinant human IFNω = recombinant human IFNω (human, UniProt P05000 22-195)
recombinant human IFNω, sequence (P05000 22-195): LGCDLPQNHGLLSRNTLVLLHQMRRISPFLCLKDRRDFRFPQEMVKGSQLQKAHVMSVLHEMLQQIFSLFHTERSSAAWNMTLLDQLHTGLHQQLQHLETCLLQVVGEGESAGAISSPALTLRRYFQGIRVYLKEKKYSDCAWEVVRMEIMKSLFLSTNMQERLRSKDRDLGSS

recombinant human IFNα14 = target: T2, recombinant human IFNα14

Kd (recombinant human IFNα4) | Kd (recombinant human IFNω) | Kd (recombinant human IFNα14) | Binder
0.0375 pM | 0.125 pM |  | 26B9, APS1/APECED patient-derived anti-IFN monoclonal antibody (antibody, V domains shown) VH: QILLQESGPGLVKPTETLSLTCSVSGDSISDSSHYWAWIRQPPGKGPEWIGSVYFSSMTHYNPSLKSRVSISVDKPKNQFSLKVTSVTVADTATYYCARQALARVGAMNWFDPWGQGSLVTVSS VL: DIIMTQSPDSLPVSLGEGVTINCKSSQSVFFTSSNKSCLAWYQQKPGKSPKLLIYWASTRQSGVPDRFRGSGSGTDFSLTITSLQAEDVAVYFCQQCQTSPPTFGGGTRLEIK
0.263 pM |  | 0.0611 pM | 19D11, APS1/APECED patient-derived anti-IFN monoclonal antibody (antibody, V domains shown) VH: QVQLVQSGAEVKRPGSSVRVSCRASGDTFSSYPISWVRQAPGQGLEWMGRILPALGVTNYAQNFRGRITITADKSPLTAYLELSSLRFEDTAVYYCASPSADIIPSILGTTLFAFWGQGSLVTVSS VL: EIVLTQSPGTLSLSPGEGATLSCRASQNVSRHYLTWYQQKPGQSPRLLIYGGSSRATGVPDRFSGGGSGTDFTLTISRLEPEDFAVFYCQSYHSPPPVYTFGQGTKVEIK
